Experimental findings from patent US20160324958A1 (ALPHA O PEPTIDES, published 2016) are described below.

In test [1] the target is Toll-like receptor 5 (TLR5) on TLR5/SEAPorter HEK 293 cells (IMGENEX, Cat. No. IML-105) (UniProt O60602). Briefly: cell-based or functional assay.
In test [2] the target is Toll-like receptor 5 (TLR5) on TLR5/SEAPorter HEK 293 cells (IMGENEX, Cat. No. IML-105) (UniProt O60602 21-858). In words: cell-based or functional assay.
Sequence of Toll-like receptor 5 (TLR5) on TLR5/SEAPorter HEK 293 cells (IMGENEX, Cat. No. IML-105) (UniProt O60602 21-858) (O60602 21-858 limits assumed): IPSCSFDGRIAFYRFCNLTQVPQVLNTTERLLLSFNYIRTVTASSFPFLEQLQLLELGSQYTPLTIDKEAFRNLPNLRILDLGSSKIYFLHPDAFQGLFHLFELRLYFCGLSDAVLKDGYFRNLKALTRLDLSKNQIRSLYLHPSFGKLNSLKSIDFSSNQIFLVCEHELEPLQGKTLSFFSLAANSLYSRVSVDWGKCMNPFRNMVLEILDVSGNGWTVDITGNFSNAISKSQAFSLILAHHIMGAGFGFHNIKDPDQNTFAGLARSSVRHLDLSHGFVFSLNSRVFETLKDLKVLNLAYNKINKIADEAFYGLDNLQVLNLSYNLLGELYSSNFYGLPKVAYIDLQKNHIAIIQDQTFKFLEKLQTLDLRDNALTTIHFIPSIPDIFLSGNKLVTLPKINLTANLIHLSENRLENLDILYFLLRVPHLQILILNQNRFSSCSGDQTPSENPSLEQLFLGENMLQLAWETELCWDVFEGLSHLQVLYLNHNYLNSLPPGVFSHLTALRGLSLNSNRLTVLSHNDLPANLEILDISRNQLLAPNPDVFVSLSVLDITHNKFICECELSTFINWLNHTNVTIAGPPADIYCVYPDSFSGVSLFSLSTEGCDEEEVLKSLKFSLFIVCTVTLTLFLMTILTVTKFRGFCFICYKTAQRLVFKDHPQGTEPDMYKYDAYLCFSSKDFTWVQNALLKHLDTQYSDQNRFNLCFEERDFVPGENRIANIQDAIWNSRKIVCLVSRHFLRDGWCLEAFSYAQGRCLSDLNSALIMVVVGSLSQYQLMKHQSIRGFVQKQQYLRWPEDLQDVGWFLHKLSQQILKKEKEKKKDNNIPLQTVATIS

Sequence of Toll-like receptor 5 (TLR5) on TLR5/SEAPorter HEK 293 cells (IMGENEX, Cat. No. IML-105) (UniProt O60602) (O60602 21-858 limits assumed): as above

In test [1], “flagellin from Salmonella typhimurium (IMGENEX flagellin, Cat. No. IMG-2205) (from UniProt P06179 2-495) (ligand)” displayed an EC50 of TLR5 agonist activity (SEAP reporter, TLR5/SEAPorter HEK 293 cells) of 0.29 ng/mL.

B1: LONG-D2-D1-ori self-assembling protein nanoparticle (other)
chain: MGHHHHHHASWRWDGGLVPRGSWQTWNARWDQWSNDWNAWRSDWQAWRDDWARWRALWMGGRLLLRLEELERRLEELERRLEELERFVAAWTLRVRALERRLEELERRIEEIARGSGSSARLSDLEANNAVKGESKITVNGAEYTANATGDKITLAGKTMFIDKTASGVSTLINEDAAAAKKSTANPLASIDSALSKVDAVRSSLGAIQNRFDSAIGSRNANDGISIAQTTEGALNEINNNLQRVRELSVQATNGTNSDSDLKSIQDEIQQRLEEIDRVSNQTQFNGVKVLSQDNQMKIQVGANDGETITIDLQKIDVKSLGLDGFNVNGPKEATVGDLKSSFKNVTGYDTYAAGADKYRVDINSGAV
Regarding B1, in test [2], the “EC50 of TLR5 agonist activity (SEAP reporter, TLR5/SEAPorter HEK 293 cells)” value worked out at 12.6 ng/mL.

B2: PD52-2i88-PANDORA-D2-D1-ori : PD52-2i88-PANDORA-Noro co-assembled nanoparticle (5:55) (other)
chain 1: MGHHHHHHASGSWEKWNAKWDEWKNDWNDWRRDWQAWVDDWAYWTLTWKYGELYSKLAELERRNEELERRLEELARFVAALSMRLAELERRNEELARGSGSSARLSDLEANNAVRGESKITVNGAEYTANATGDRITLAGRTMFIDRTASGVSTLINEDAAAARRSTANPLASIDSALSRVDAVRSSLGAIQNRFDSAIGSKNANDGISIAQTTEGALNEINNNLQRVRELSVQATNGTNSDSDLRSIQDEIQQRLEEIDRVSNQTQFNGVKVLSQDNQMKIQVGAKDGETITIDLQKIDVKSLGLDGFNVNGPREATVGDLRSSFRNVTGYDTYAAGADRYRVDINSGAV
chain 2: MGHHHHHHASGSWEKWNAKWDEWKNDWNDWRRDWQAWVDDWAYWTLTWKYGELYSKLAELERRNEELERRLEELARFVAALSMRLAELERRNEELARGSGSTVEQKTRPFTLPNLPLSSLSNSRAPLPISSMGISPDNVQSVQFQNGRCTLDGRLVGTTPVSLSHVAKIRGTSNGTVINLTELDGTPFHPFEGPAPIGFPDLGGCDWHINMTQFGHSSQTQYDVDTTPDTFVPHLGSIQANGIGSGNYVGVLSWISPPSHPSGSQVDLWKIPNYGSSITEATHLAPSVYPPGFGEVLVFFMSKMPGPGAYNLPCLLPQEYISHLASEQAPTVGEAALLHYVDPDTGRNLGEFKAYPDGFLTCVPNGASSGPQQLPINGVFVFVSWVSRFYQLKPVGTAS
Turning to B2, the “EC50 of TLR5 agonist activity (SEAP reporter, TLR5/SEAPorter HEK 293 cells)” value in test [2] was 17.7 ng/mL.

B3: T81c-WRW-8RRVRA-D0-D1 : T81c-WRW-8RRVRA-T1BT* co-assembled nanoparticle (12:48) (other)
chain 1: MGHHHHHHASWRWDGGLVPRGSWQTWNARWDQWSNDWNAWRSDWQAWRDDWARWRALWMGGRLLLRLEELERRLEELERRLEELERFVAAWTLRVRALERRLEELERRIEEIARGMAQVINTNSLSLLTQNNLNKSQSALGTAIERLSSGLRINSAKDDAAGQAIANRFTANIKGLTQASRNANDGISIAQTTEGALNEINNNLQRVRELAVQSANSTNSQSDLDSIQAEITQRLNEIDRVSGQTQFNGVKVLAQDNTLTIQVGANDGETIDIDLKQINSQTLGLDSLNVHGAPVDPASPWTENPLQKIDAALAQVDALRSDLGAVQNRFNSAITNLGNTVNNLSEARSRIEDSDYATEVSNMSRAQILQQAGTSVLAQANQVPQNVLSLLR
chain 2: MGHHHHHHASEYLNKIQNSLSTEWSPSSVTGSWQTWNARWDQWSNDWNAWRSDWQAWRDDWARWRALWMGGRLLLRLEELERRLEELERRLEELERFVAAWTLRVRALERRLEELERRIEEIARGSGDPNANPNVDPNANPNVNANPNANPNANP
As for B3, in test [2], the “EC50 of TLR5 agonist activity (SEAP reporter, TLR5/SEAPorter HEK 293 cells)” value came to 0.0901 ng/mL and the “TLR5 activation relative to native flagellin” value is about 3 fold.
